Numbering of substitutions follows the chain as printed. Entries after “also recorded” stand apart in the source; their conditions may differ. Where no end group is shown, it is not given here. MBP = maltose-binding protein (N-terminal fusion tag)

One data set relates to RAD51–ssDNA NPF. Nature of the data set: EMSA of MBP-fusion TR2 mutants binding the RAD51-ssDNA NPF. Also on record: species or system human. The note with it: for binding of MBP-TR2 mutant to the RAD51 NPF: ssDNA 60 nt, His6-MBP-TR2 5 min, room temperature, 25 mM HEPES pH 7.5, 150 mM NaCl, 2 mM ATP, 5 mM CaCl2, repeated once. The source says:
The local resolution at the TR2 site was lower than for the global map, which complicated the model fitting for the peptide. Fitting with the correct sequence register was guided by the density of the large side chains in the highly conserved TR2 region 3296-KAFQPPR-3302 (Fig. 3A). To validate our molecular model of BRCA2 TR2 association with the RAD51 NPF, we performed a mutational analysis of the RAD51–TR2 interface, targeting residues that are predicted by the structure to be important for the RAD51-TR2 interaction (Fig. 4A, B). We generated TR2 mutants as Maltose-Binding Protein (MBP) fusion proteins (Supplementary Fig. 1) and measured by EMSA their ability to bind the RAD51 NPF.
Fig. 4 Structure-based mutational analysis of the BRCA2 TR2-RAD51 interface. A Multiple sequence alignment of BRCA2 TR2 sequences, coloured according to residue type (Hse: Homo sapiens; Gga: Gallus gallus; Xla: Xenopus laevis; Dre: […]). B Drawing of TR2 and RAD51 amino acids targeted for mutagenesis. Drawing style as in D–F of Fig. 3. C–E EMSA analysis of RAD51–ssDNA NPF binding by MBP-fusion TR2 mutants K3296A, Q3299A, R3302A (C); 3A (K3296A, Q3299, R3302A), 3D (K3296D, Q3299D, R3302D) (D); S3291A, F3298A (E). The TR2 peptide was used as a control. EMSA experiments repeated once. Source data are provided as a Source Data file.
An E.coli codon-optimised gene fragment encoding residues D3260 to Y3308 of human BRCA2 was synthesised (IDT) with flanking BamHI and HindIII restriction sites and ligated into the pMAT11 expression vector[44] (Addgene plasmid #112592) to express BRCA2 TR2 as a dual-tag His6-MBP (Maltose-Binding Protein) fusion protein. pMAT11 constructs for expression of BRCA2 TR2 mutants S3291A, F3298A, K3296A, Q3299A, R3302A, the triple K3296, Q3299, […] alanine (3A) and aspartic acid (3D) mutants were produced in the same way as the wild-type construct.
All His6-MBP-BRCA2 TR2 fusion proteins were expressed and purified in an identical manner. pMat11-His6-MBP-TR2 constructs were transformed into E.coli BL21(DE3)Rosetta2 and transformed cells were used to inoculate 2YT growth medium supplemented with 50 μg/ml ampicillin. Cells were cultured until an OD600 reading of 0.7 before induction with 0.5 mM IPTG. Cell pellets were resuspended in resuspension buffer and sonicated to lyse cells in the presence of EDTA-free protease inhibitor. Cell lysate supernatant was loaded on a 5-ml HisTrap HP column pre-equilibrated with His Buffer A before elution in 40% His Buffer B. Fractions containing the His6-MBP-BRCA2 TR2 protein were pooled and purified further by size-exclusion chromatography using a 16/600 Superdex S75 pg (Cytiva) column pre-equilibrated in storage buffer. To minimise the presence of proteolytically degraded protein, a single fraction at the front of the elution peak containing His6-MBP-TR2 was retained and concentrated to at least 100 μM before flash freezing in liquid nitrogen and storage at −80 °C.
To assess RAD51 nucleoprotein (NPF) formation, wild-type and mutant RAD51 proteins were incubated with DNA in buffer: 25 mM HEPES pH 7.5, 150 mM NaCl, 2 mM DTT, 2 mM ATP, 5 mM CaCl2 for 15 minutes at room temperature. For filament binding of the TR2 peptide or His6-MBP-TR2 protein, the RAD51 NPFs were incubated with TR2 for further 5 minutes at room temperature. For filament binding of BRC4, the BRC4 peptide was pre-mixed with RAD51 for 10 minutes at room temperature before addition of DNA. For experiments with mono-streptavidin (mSA)-capped DNA, mSA (Sigma) was added in 5× molar excess of biotin labels for 15 minutes at room temperature prior to the addition of RAD51. Concentrations are provided in figures and DNA sequences for each experiment are reported in Supplementary Table 1.
Before electrophoresis, samples were mixed with a 0.5:1 volume of 50% (w/v) sucrose solution and analysed on a pre-run 0.5% (w/v) agarose gel in 0.5× TB buffer at 35 V for 2.5 hours at 4 °C. […]
On the technique in general: In EMSA bound probe runs differently from free probe, usually more slowly.

The target of data set [1] is T1, RAD51;BRCA2 TR2 peptide (Homo sapiens;Homo sapiens, UniProt Q06609;P51587 1-339;, |). Nature of the data set: SPR; TR2 on preformed filament; ATP, Ca2+, Mg2+; EMSA: 25 mM HEPES pH 7.5, 150 mM NaCl, 2 mM DTT, 2 mM ATP, 5 mM CaCl2, room temperature; SPR: 25 mM HEPES pH 7.4, 100 mM NaCl, 2 mM DTT, 2 mM ATP, 5 mM CaCl2, 5 mM MgCl2. The note with it: tags: untagged (co-expressed with His6-MBP-BRC4, pMBP4-RAD51);. A general note: SPR reads the build-up and loss of mass on a sensor chip optically.

The target of data set [2] is T1, RAD51;BRCA2 TR2 peptide. Nature of the data set: EMSA; TR2 enhances filament; ATP, Ca2+; EMSA: 25 mM HEPES pH 7.5, 150 mM NaCl, 2 mM DTT, 2 mM ATP, 5 mM CaCl2, room temperature; SPR: 25 mM HEPES pH 7.4, 100 mM NaCl, 2 mM DTT, 2 mM ATP, 5 mM CaCl2, 5 mM MgCl2. The note with it: tags: untagged (co-expressed with His6-MBP-BRC4, pMBP4-RAD51);.
For data set [3], the target named is T2, human RAD51, wild type (human, UniProt Q06609 1-339).
T2 construct: RAD51, human DNA-strand exchange protein; In all assays RAD51 stood as a nucleoprotein filament on ss- or dsDNA with ATP and CaCl2; probably the whole, untagged protein; also called WT RAD51; RAD51 NPF; source: E. coli BL21(DE3)Rosetta2, co-expressed with His6-MBP-BRCA2 BRC4, purified (HisTrap, heparin, SEC)
T2 sequence: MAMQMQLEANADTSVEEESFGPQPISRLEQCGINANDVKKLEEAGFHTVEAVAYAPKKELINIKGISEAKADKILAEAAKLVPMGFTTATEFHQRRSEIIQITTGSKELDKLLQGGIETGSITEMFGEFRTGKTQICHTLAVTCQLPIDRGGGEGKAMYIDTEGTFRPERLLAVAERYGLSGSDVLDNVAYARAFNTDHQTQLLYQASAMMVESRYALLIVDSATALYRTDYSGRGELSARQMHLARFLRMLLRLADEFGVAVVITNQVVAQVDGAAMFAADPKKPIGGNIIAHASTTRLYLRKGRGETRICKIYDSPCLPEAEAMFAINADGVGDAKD
Nature of the data set: native gel or EMSA; TR2 peptide titrated on RAD51 NPFs pre-formed on fluorescein-labelled ss- or dsDNA; 25 mM HEPES pH 7.5, 150 mM NaCl, 2 mM DTT, 2 mM ATP, 5 mM CaCl2, room temperature, TR2 added for 5 minutes; 0.5% agarose gel at 4 °C. The note with it: both partners purified.

Data set [4] deals with T2, human RAD51, wild type. Kind of data set: native gel or EMSA; His6-MBP-TR2 fusion proteins added for 5 minutes to RAD51–ssDNA NPFs; 25 mM HEPES pH 7.5, 150 mM NaCl, 2 mM DTT, 2 mM ATP, 5 mM CaCl2, room temperature; 0.5% agarose gel. The note with it: both partners purified.
Data set [5] has as its target T1, RAD51;BRCA2 TR2 peptide. Nature of the data set: cryo-EM micrographs; TR2 1:0.5; filament bundling; EMSA: 25 mM HEPES pH 7.5, 150 mM NaCl, 2 mM DTT, 2 mM ATP, 5 mM CaCl2, room temperature; SPR: 25 mM HEPES pH 7.4, 100 mM NaCl, 2 mM DTT, 2 mM ATP, 5 mM CaCl2, 5 mM MgCl2. The note with it: tags: untagged (co-expressed with His6-MBP-BRC4, pMBP4-RAD51);.

Turning to “F3298A: His6-MBP fusion protein of BRCA2 TR2 mutant F3298A ({His6-MBP}-DDQKNCKKRRALDFLSRLPLPPPVSPICTFVSPAAQKAAQPPRSCGTKY; cysteine pairing not given here)”, in the data set on RAD51–ssDNA NPF, the “binding of MBP-TR2 mutant to the RAD51 NPF” value is “abolished TR2 binding to the RAD51 NPF; also recorded: complete loss of TR2 binding”.
As for “Q3299A: His6-MBP fusion protein of BRCA2 TR2 mutant Q3299A ({His6-MBP}-DDQKNCKKRRALDFLSRLPLPPPVSPICTFVSPAAQKAFAPPRSCGTKY; cysteine pairing not given here)”, the “binding of MBP-TR2 mutant to the RAD51 NPF” value in the data set with RAD51–ssDNA NPF is “increased association with the filament”.
Same read-out and setting: for “R3302A: His6-MBP fusion protein of BRCA2 TR2 mutant R3302A ({His6-MBP}-DDQKNCKKRRALDFLSRLPLPPPVSPICTFVSPAAQKAFQPPASCGTKY; cysteine pairing not given here)” the value was “modest decrease in filament binding”.
For “S3291A: His6-MBP fusion protein of BRCA2 TR2 mutant S3291A ({His6-MBP}-DDQKNCKKRRALDFLSRLPLPPPVSPICTFVAPAAQKAFQPPRSCGTKY; cysteine pairing not given here)”, the “binding of MBP-TR2 mutant to the RAD51 NPF” value in the data set on RAD51–ssDNA NPF is recorded as “drastically reduced”. The “residual binding of MBP-TR2 mutant to the RAD51 NPF” value in the data set with RAD51–ssDNA NPF (ssDNA, Fig. 4E) is on record as “still able to associate with the filament; also recorded: retains a degree of binding to the filament”.
As for “K3296A: His6-MBP fusion protein of BRCA2 TR2 mutant K3296A ({His6-MBP}-DDQKNCKKRRALDFLSRLPLPPPVSPICTFVSPAAQAAFQPPRSCGTKY; cysteine pairing not given here)”, in the data set with RAD51–ssDNA NPF, the “binding of MBP-TR2 mutant to the RAD51 NPF” value was “modest decrease in filament binding”.

B1: 60-nt ssDNA biotin (ssDNA)
DNA: ATGGTGTGTGTAGGTTAATGTGAGGAGGAGAGGTGAAGAAGGAGGAGAGAAGAAGGAGGC
With B1, the binding result with RAD51;BRCA2 TR2 peptide [1] (label: 5' biotin) is recorded as “binds”.

B2: 60-nt ssDNA FAM (ssDNA)
DNA: B1 DNA
B2: the binding result in the data set with RAD51;BRCA2 TR2 peptide [2] (label: 5' FAM) is listed as “binds”.

B3: 60-bp dsDNA biotin (dsDNA)
DNA 1: B1 DNA
DNA 2: GCCTCCTTCTTCTCTCCTCCTTCTTCACCTCTCCTCCTCACATTAACCTACACACACCAT
For the molecule B3, in the data set with RAD51;BRCA2 TR2 peptide [1] (label: 5' biotin on strand 1, blunt), the binding result is recorded as “binds”.

B4: 60-bp dsDNA FAM (dsDNA)
DNA 1: B1 DNA
DNA 2: B3 DNA 2
Consider B4, for which the binding result in the data set with RAD51;BRCA2 TR2 peptide [2] (label: 5' FAM on strand 1, blunt) is on record as “binds”.

B5: BRCA2 TR2 peptide spanning amino acids 3260 to 3308 (peptide, UniProt P51587 3260-3308, looked up)
peptide: DDQKNCKKRRALDFLSRLPLPPPVSPICTFVSPAAQKAFQPPRSCGTKY
notes: Only residues 3289 to 3304 are modelled in the PDB entries; source: synthetic peptide (synthesised commercially)
Turning to B5, the binding result with human RAD51, wild type [3] is on record as “binds”.

B6: His6-MBP-BRCA2 TR2 R3302A (domain or fragment, human, UniProt P51587 3260-3308, looked up)
chain: B5 peptide with R43A
notes: BRCA2, human, TR2 motif, residues D3260 to Y3308; source: E. coli BL21(DE3)Rosetta2, purified (HisTrap, SEC); not shown: His6, N-terminal, kept; MBP, N-terminal, kept
Regarding B6, the binding result in the data set with human RAD51, wild type [4] is reported as “binds”.

B7: His6-MBP-BRCA2 TR2 Q3299A (domain or fragment, human, UniProt P51587 3260-3308, looked up)
chain: B5 peptide with Q40A
notes: as for B6
For the molecule B7, in the data set with human RAD51, wild type [4], the binding result is “binds”.

B8: His6-MBP-BRCA2 TR2 K3296A (domain or fragment, human, UniProt P51587 3260-3308, looked up)
chain: B5 peptide with K37A
notes: as for B6
Turning to B8, in the data set with human RAD51, wild type [4], the binding result is listed as “binds”.

B9: 50-nt dsDNA Cy3 (dsDNA)
DNA 1: CCGACTGACGCTCAACATAGGTACCACACGGCGAGCTCGATGCACCTCCA
DNA 2: TGGAGGTGCATCGAGCTCGCGACAAACCTTCTATGTTGAGCGTCAGTCGG
In the case of B9, the binding result with RAD51;BRCA2 TR2 peptide [5] (label: 3' Cy3 on strand 1, blunt ends, internal mismatched bubble about 10 nt) was “binds”.
As to TTTTTTTTTTTCGTGTGGTACTTTTTTTTTTT (ssDNA) [32-nt ssDNA Cy5], in the data set with RAD51;BRCA2 TR2 peptide [5] (label: 5' Cy5), the binding result is on record as “binds”.
